According to the supplement of paper PMC9170038:

Tested on: MS2 coat protein
Assay: apparent KD of MS2 coat protein; designed switch direction (-1 OFF switch, 1 ON switch): -1; higher = weaker reporter binding
Procedure, shortened: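 Designed RNA switches were transcribed on Illumina chips by stalled E. coli RNA polymerase and titrated with SNAP-549-labelled MS2 coat protein from 0.7 or 1.5 nM, doubling to 3 µM. Step length ran from 0.8–1.5 h at the lowest concentration to 10–20 min at the highest. The apparent KD is the median over clusters for each design, from curve-fitted normalised cluster fluorescence.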

[1] = input ligand: microRNA oligo, concentration not stated
[2] = Eterna round: R95, input ligand: microRNA oligo, concentration not stated
[3] = Eterna round: R95, input ligand: FMN 200 uM
[4] = Eterna round: R95, input ligand: none

Row | Sequence | apparent KD of MS2 coat protein (input ligand: FMN 200 uM) [nM] | apparent KD of MS2 coat protein [1] [nM] | apparent KD of MS2 coat protein (input ligand: none) [nM] | apparent KD of MS2 coat protein [2] [nM] | apparent KD of MS2 coat protein [3] [nM] | apparent KD of MS2 coat protein [4] [nM]
1 | UUGUGAGGUGUAGGAUAUUGUUGUUGUUUUUAGCGAGAAGGACAUGAGGAUCACCCAUGUGUCGUGUUUUUUUUUUUUUUUUUU [simply blue] (Eterna round: R96, puzzle: Exclusion NG 1) | 78.9 | 93.5 | 59.1 |  |  | 
2 | UAUAAACAUGAGGAUCACCCAUGUGAGGAUAUCAAAACCAGAGCGGAUCUCUGGCCCAUGAGAAGGUGCAUGGU [ElNandoxlusion 8 - Jieux - Exclusion 1] (Eterna round: R97, puzzle: Exclusion 1) | 137 |  | 26.2 |  |  | 
3 | CCAGGCUGUGUGAGGAUAUGCUGGUCCUUGGAUCAGCAGAAGGCACAUGAGGAUCACCCAUGUGAAGAGCUUGG [JL bmx4 3.23] (puzzle: Brourd's mod of Exclusion 4) |  |  |  | 15.6 |  | 
4 | CCACGACAUGAGGAUCACCCAUGUGAGGAUAUGGCCUGAAAAGCGUGAGCAGUUUCAAUCAGAAGGCGCGUGGG [salish99_ex1_r4_062] (Eterna round: R97, puzzle: Exclusion 1) | 162 |  | 62.2 |  |  | 
5 | AAGACAAUUCUCUAGUGCAACAUGAGGAUCACCCAUGUCAUAGAAGCUUUUUGCUCGUGUUAAGUGACUCAAGAGAG [Eternabot (Original) Solution 41] (Eterna round: R97, puzzle: Sensor, turn-off variant 1) | 69.6 |  | 64.2 |  |  | 
6 | AAGAGGCGGACAGGAUAUGGGAAAUUGUAAAGACCAGAAGGGUCGGCGAAAAUACAUGAGGAUCACCCAUGUGACUCAUGACCA [AK ExNG1-7.1] (Eterna round: R96, puzzle: Exclusion NG 1) | 913 | 311 | 290 |  |  | 
7 | UGUACUAUGCGUGCUGACAUGCGUAGUGCAGCAGGUGUAACAUGAGGAUCACCCAUGUCCUCAUUUGCUCGUCUUAU [SL-sv3-2.06 JL mod] (puzzle: Sensor v3, turn-off variant 2) |  |  |  | 176 | 194 | 273
8 | UUUAAUUUUUUUUUUUUACAAGCUUUUUGCUCGUCUUAUACAUGAGGAUCACCCAUGUGGGUGGGAGAUAAAUUAUC [JMF 24] (puzzle: Sensor v3, turn-off variant 2) |  |  |  | 59.3 | 88.6 | 341
9 | UUUAACAAGCCAGAUCCUCACAUGAGGAUCACCCAUGUGCUCGUCUGAUUUUGUACUAUCAUGUGAGUGAUAGUGUU [Level Boss var2-06] (Eterna round: R96, puzzle: Sensor v3, turn-off variant 1) | 200 | 56.9 | 205 |  |  | 
10 | GUGUACAGAGGAUAUACAAUAGGAGUUACGAAAGUAACUUCACAUGAGGAUCACCCAUGUAGAAGGCUGUACAC [Dot plot directed v8] (puzzle: Exclusion 2) |  |  |  | 17.7 |  | 
11 | UGAAUAAUAGUAAGGAUAUCAGCCGCGAAAGUGGCUGAGAAGGUACAUGAGGAUCACCCAUGUGAAAUAAGAAU [Mod of Zala 19 - Jieux - Brourd's Mod of Exclusion 4] (Eterna round: R97, puzzle: Brourd's mod of Exclusion 4) | 27.1 |  | 19.8 |  |  | 
12 | GUUGUUUAUGUAGGAUAUGCCUGGCGUGCCUUCGCAGAAGGACAUGAGGAUCACCCAUGUAUUGCGGUCUGCGUUCAGAUCGCU [salish99_ExNG1_r4_023] (Eterna round: R96, puzzle: Exclusion NG 1) | 49.8 | 38.8 | 52.7 |  |  | 
13 | CCAUCGAGUGUGAGGAUAUGCUGGUCCUUGGAUCAGCAGAAGGCACAUGAGGAUCACCCAUGUGGAAACGGUGG [Mat - Exclusion 4 - JL Mod - D77] (puzzle: Brourd's mod of Exclusion 4) |  |  |  | 27.7 |  | 
14 | CCAUAUAACUGAGGAUAUACGCACCACUAACUAGUAGAAGGCAGACAUGAGGAUCACCCAUGUGAUUUCUCAAUAUUAUACAUC [Prohibition 74 - Jieux - Exclusion NG 1] (Eterna round: R96, puzzle: Exclusion NG 1) | 927 | 357 | 775 |  |  | 
15 | CCCACAUGAGGAUAUCCAUCUGGAUCAGACAAGAUCCUGAUGGAGAAGGUACAUGAGGAUCACCCAUGUGUGGG [Mat - Exclusion 4 - Eli Mod - D60] (Eterna round: R97, puzzle: Exclusion 4) | 189 |  | 267 |  |  | 
16 | UUUUAGCAAGCGAGUAUUAACAUGAGGAUCACCCAUGUGCAUCCAGUAUUACUUUUAGAUCUUGCUCGUCUUAUAUA [JR_STOV1_v2_Sub083] (Eterna round: R97, puzzle: Sensor, turn-off variant 1) | 339 |  | 381 |  |  | 
17 | GAAAAGGUAGGAUAUACGAAAAAAAAGGGUAGGAAAAAAACACAUGAGGAUCACCCAUGUAGAAGGACCAAAAG [salish99_ex2_r3_024] (puzzle: Exclusion 2) |  |  |  | 21.8 | 61.7 | 19.8

Row | Sequence | apparent KD of MS2 coat protein (input ligand: FMN 200 uM) [nM] | apparent KD of MS2 coat protein [1] [nM] | apparent KD of MS2 coat protein (input ligand: none) [nM] | apparent KD of MS2 coat protein [2] [nM] | apparent KD of MS2 coat protein [3] [nM] | apparent KD of MS2 coat protein [4] [nM]
18 | CUUUUGUGAGGAUAUUAGUAGUAAUUAAAUAAAAUUACUACUGAGAAGGCACAUGAGGAUCACCCAUGUUCCUC [salish99_ex4_r3_053] (puzzle: Exclusion 4) |  |  |  | 35.9 |  | 
19 | AGUUUACAUGAGGAUCACCCAUGUGAGGAUAUGGAUUCGCUGGCCGUAGCCAGUGGAUCCAGAAGGCGCGUGAU [JL-ex1-4.29] (Eterna round: R97, puzzle: Exclusion 1) | 186 |  | 101 |  |  | 
20 | UAAUACAAGUAGAGAUUCUACAUGAGGAUCACCCAUGUGCUCGUCUUAUAAAGUACUAUCACGAAAGUGAUAGUACU [Mat - Sensor v3 - turn-off var 1 - Eli Mod - D98] (puzzle: Sensor v3, turn-off variant 1) |  |  |  | 192 | 18.3 | 17.4
21 | UCUCGACAUGAGGAUCACCCAUGUCAGGAUAUUGUGUUUGAGGUUUUUUACCUUUUGGCAAGAAGGGAUGUGUG [LRO-Excl1-21] (puzzle: Exclusion 1) |  |  |  | 24.9 |  | 
22 | GCUGCGCGAGGAUAUGCGGUUUGUGCUUUGGCCCGUGGCGUACAUGAGGAUCACCCAUGUAGAAGGCGUGUGGG [Apr-15 SS2-53] (puzzle: Exclusion 2) |  |  |  | 18.1 |  | 
23 | UUGUUGUAUGUAGGAUAUGCAUAUUAUUAUUAUGCAGAAGGACAUGAGGAUCACCCAUGUAUGUUAUUAUUAUAUGUUAUGUGU [Title] (Eterna round: R96, puzzle: Exclusion NG 1) |  | 32 |  |  |  | 
24 | GUCGUGCGGCUUUGCUGUACGAGUACAUGAGGAUCACCCAUGUAGGAUAUGGUACGCUUUGCGUGCCAGAAGGGCGUGCGUUGG [salish99_ExNG3_r04_006] (Eterna round: R96, puzzle: Exclusion NG 3) | 33.3 | 23.9 | 29.9 |  |  | 
25 | ACUUGUUGUCCUUGAUAUUACAUGAGGAUCACCCAUGUUAUUGUGAUUUUGAUGUGUAAGUUUGUUGCUCGUCUUAU [JR_STOV1_Sub064] (Eterna round: R97, puzzle: Sensor, turn-off variant 1) | 70.2 |  | 71.5 |  |  | 
26 | UUGUUAUGUGUAGGAUAUGCAUAUUAUUAUUAUGCAGAAGGACAUGAGGAUCACCCAUGUGUAUUGUUAUUAUAUAUUAUAUAU [Title] (Eterna round: R96, puzzle: Exclusion NG 1) |  | 17.1 |  |  |  | 
27 | ACGCCUCCUGUCAGGAUAUGCAUCGGGCUUCCGCAGCAGAAGGGACAUGAGGAUCACCCAUGUCAAAUAAAAUC [Onsoqule] (puzzle: Brourd's mod of Exclusion 4) |  |  |  | 16.3 |  | 
28 | GGUACUCAUGUGAGGAUAUGCUCGAAUGCAGACGAGCAGAAGGUACAUGAGGAUCACCCAUGUACCAUAAAGUA [Eternabot (Original) Solution 1] (Eterna round: R97, puzzle: Brourd's mod of Exclusion 4) | 23.6 |  | 13.1 |  |  | 
29 | GUCAGCUCGUGAGGAUAUACAUCACUGCUUCGGCAGUGUAUUAAGAUCACAUGAGGAUCACCCAUGUAGAAGGUACGAGCUGAC [ENG2/2-C1] (Eterna round: R96, puzzle: Exclusion NG 2) | 180 | 21.5 | 22.1 |  |  | 
30 | AAGUACCGUCACGAUAGUGAUGGUACAACAAGUAUGUGAACAUGAGGAUCACCCAUGUCCUCUUUUGCUCGUCUUAU [Sensor 3 - 89] (puzzle: Sensor v3, turn-off variant 2) |  |  |  | 22.3 | 313 | 309
31 | UCUCAGAUAGGAUAUACGUUGGCGGUAGAUCGGGUUUAAAUACAUGAGGAUCACCCAUGUAGAAGGAUCGAGGG [EX2 C.8] (Eterna round: R97, puzzle: Exclusion 2) | 94.4 |  | 104 |  |  | 
32 | GGGCCCGGAGGAUAUACAAUGCGCGCGCGAAAGUGUGUGUUACAUGAGGAUCACCCAUGUAGAAGGCCGGGCCC [-39.9, -36.7 kcal A 24%, 6,0] (Eterna round: R97, puzzle: Exclusion 2) | 39.4 |  | 16.7 |  |  | 
33 | UUUAAUUUUUUUUUUUUACAAGCUUUUUGCUCGUCUUAUACAUGAGGAUCACCCAUGUGGGUGAGAAGUAAAUUAUC [JMF 48] (puzzle: Sensor v3, turn-off variant 2) |  |  |  | 14.6 | 63.7 | 224
34 | ACUUGUUGUCCUUGAUUUUACAUGAGGAUCACCCAUGUUAUUUUGAUUAUGAUGUGUAAGUUUGUUGCUCGUUUUAU [JR_STOV1_Sub067] (Eterna round: R97, puzzle: Sensor, turn-off variant 1) | 61.9 |  | 67.4 |  |  | 
